Reference: publication PMC8161422

Key:
[1] = molecular target: alpha-synuclein 5Q mutant E114Q;E123Q;E126Q;E137Q;E139Q (UniProt P37840); assay: pH electrode (Orion Star A211 meter, Orion ROSS combination micro electrode) before and after fibril formation; closed-system proton balance; settings: fibril formation at 37 °C, temperature of the pH reading not stated, no added salt (pure water; protein and its counter-ions only), none (Milli-Q water; the protein is the only buffer)
His50 = His50 (UniProt position 50, KEGVVHGVATV); assay: NMR; settings: No added salt is implied by the Table 1 footnote 'in absence of salt'. Ionic strength is otherwise not stated.; 20 mM sodium phosphate buffer, pH 7 (as described in this article); protein 250 µM; free monomer, intrinsically disordered, no fibrils; cited from earlier work
[2] = molecular target: alpha-synuclein, wild type (UniProt P37840); assay: pH electrode (Orion Star A211 meter, Orion ROSS combination micro electrode) before and after fibril formation; closed-system proton balance; settings: fibril formation at 37 °C, temperature of the pH reading not stated, no added salt (pure water; protein and its counter-ions only), none (Milli-Q water; the protein is the only buffer)
[3] = molecular target: alpha-synuclein, wild type (UniProt P37840); assay: NMR pH titration (quoted from Croke et al. 2011, ref 30); settings: 20 mM sodium phosphate buffer, pH 7 (so in the source); cited from earlier work
[4] = molecular target: alpha-synuclein, wild type (UniProt P37840); assay: NMR pH titration (quoted from Croke et al. 2011, ref 30); Asp and Glu values averaged by the present authors; settings: in absence of salt (Table 1 footnote d), not stated for the Asp/Glu values ('in buffer'); cited from earlier work

alpha-synuclein 5Q mutant E114Q;E123Q;E126Q;E137Q;E139Q
change of sample pH on fibril formation ([1]; pH 6.4-6.6): pH increases by only 0.2 units, from pH 6.4 (monomer) to pH 6.6 (fibrils), 20 uM in water | apparent pKa(ave) of acidic groups in fibrils, average over the remaining acidic groups (five fewer than wild type) of the 5Q mutant ([1]; pH 6.6): 4.7 pH units

alpha-synuclein (Homo sapiens)
pKa (His50): 6.78

alpha-synuclein, wild type
change of sample pH on fibril formation ([2]; pH 5.6-6.5): pH increases by 0.9 units, from pH 5.6 (monomer) to pH 6.5 (fibrils), 20 uM in water | protons taken up per monomer during fibril formation ([2]; pH 5.6-6.5): about 2 protons per monomer | apparent pKa(ave) of acidic groups in fibrils, average over all acidic groups (Asp, Glu and the C-terminus) of alpha-synuclein ([2]; pH 6.5): 5.4 pH units | pKa, His50 of alpha-synuclein (monomer) [3]: 6.78 pH units | pKa in C-terminal tail of α-synuclein (Asp), average of Asp residues in the C-terminal tail of monomeric alpha-synuclein [4]: 4.2 pH units | pKa in C-terminal tail of α-synuclein (Glu), average of Glu residues in the C-terminal tail of monomeric alpha-synuclein [4]: 4.6 pH units | pKa in N-terminal and NAC region of α-synuclein (Asp), average of Asp residues in the N-terminal and NAC regions (first 100 residues) of monomeric alpha-synuclein [4]: 3.6 pH units | pKa in N-terminal and NAC region of α-synuclein (Glu), average of Glu residues in the N-terminal and NAC regions (first 100 residues) of monomeric alpha-synuclein [4]: 4.2 pH units | pKa in full length α-synuclein monomer (Asp), average of all Asp residues of monomeric alpha-synuclein [4]: 4 pH units | pKa in full length α-synuclein monomer (Glu), average of all Glu residues of monomeric alpha-synuclein [4]: 4.4 pH units
